Test results published in paper PMC4333399.

Key:
PCG2-DBD 1-128 = PCG2-DBD 1-128 (Magnaporthe oryzae, UniProt G4NA99 1-128); assay: SPR; SPR (Biacore T100, steady state): 20 mM Tris pH 8.0, 150 mM NaCl, 0.005% Tween20; temperature not stated; conditions: protein: recombinant; tags: N-terminal 6xHis; label: 5'-biotin on strand S2; blunt
PCG2-DBD WT [1] = molecular target: T1, PCG2-DBD WT (Magnaporthe oryzae, UniProt G4NA99 1-138); assay: as above; conditions: protein: recombinant; tags: N-terminal 6xHis (pHAT2); chain copies: 2; label: 5'-biotin on strand S2; blunt
PCG2-DBD 12-138 = PCG2-DBD 12-138 (Magnaporthe oryzae, UniProt G4NA99 12-138); assay: as above; conditions: protein: recombinant; tags: N-terminal 6xHis; chain copies: 2; label: 5'-biotin on strand S2; blunt
PCG2-DBD 12-128 = PCG2-DBD 12-128 (Magnaporthe oryzae, UniProt G4NA99 12-128); assay: as above; conditions: protein: recombinant; tags: N-terminal 6xHis; label: 5'-biotin on strand S2; blunt
PCG2-DBD WT [2] = molecular target: T1, PCG2-DBD WT; assay: crystal structure; two PCG2-DBD monomers per duplex; SPR (Biacore T100, steady state): 20 mM Tris pH 8.0, 150 mM NaCl, 0.005% Tween20; temperature not stated; conditions: protein: recombinant; tags: N-terminal 6xHis (pHAT2); chain copies: 2; blunt

Binder | Kd (PCG2-DBD 1-128) [µM] | Kd (PCG2-DBD WT [1]) [µM] | Kd (PCG2-DBD 12-138) [µM] | Kd (PCG2-DBD 12-128) [µM] | binding result (PCG2-DBD WT [2])
MCB1 DNA (SPR) (dsDNA) DNA 1: CTTACGCGTCATTG DNA 2: CAATGACGCGTAAG | 29.8 ± 6.3 | 0.81 ± 0.03 | 1.37 ± 0.45 | 48.3 ± 5.2 | –
MCB1 DNA (crystal) (dsDNA) DNA 1: CAATGACGCGTAAG DNA 2: CTTACGCGTCATTG | – | – | – | – | binds
